Among the data in patent US20250313646A1 (AUGMENT BIOLOGICS, published 2025) are Kd values, retold here.

Assay [1] addresses T1, full-length, biotinylated, human CD20 (Acro Biosystems) (human, UniProt P11836 1-297, biotinylated (site not stated)).
T1 construct: mature; No construct limits or tags are stated for the bought reagent; also called CD20 antigen
T1 sequence (looked up): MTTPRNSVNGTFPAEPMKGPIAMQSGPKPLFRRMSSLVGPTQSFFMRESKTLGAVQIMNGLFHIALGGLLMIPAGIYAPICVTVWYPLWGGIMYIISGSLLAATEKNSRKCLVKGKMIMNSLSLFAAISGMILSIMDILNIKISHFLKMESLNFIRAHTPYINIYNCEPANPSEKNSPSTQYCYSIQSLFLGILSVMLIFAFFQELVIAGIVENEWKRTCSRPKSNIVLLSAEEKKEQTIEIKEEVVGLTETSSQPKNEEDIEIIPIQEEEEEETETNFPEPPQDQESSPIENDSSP
The assay is described as follows: BLI (Octet RED96e), biotinylated CD20 on biosensor, antibody at 100 nM.

The target in assay [2] is T1, full-length, biotinylated, human CD20 …. The assay is described as follows: BLI (Octet RED96e), biotinylated CD20 on biosensor, antibody at 25 nM.
Assay [3] shares this target. The assay is described as follows: BLI (Octet RED96e), biotinylated CD20 on biosensor, antibody at 50 nM.

B1: wildtype Rituximab (antibody)
chain 1: not shown
chain 2: QIVLSQSPAILSASPGEKVTMTCRASSSVSYIHWFQQKPGSSPKPWIYATSNLASGVPVRFSGSGSGTSYSLTISRVEAEDAATYYCQQWTSNPPTFGGGTKLEIKRTVAAPSVFIFPPSDEQLKSGTASVVCLLNNFYPREAKVQWKVDNALQSGNSQESVTEQDSKDSTYSLSSTLTLSKADYEKHKVYACEVTHQGLSSPVTKSFNRGEC
On to B1, for which the dissociation constant Kd in assay [1] is 0.169 nM; in assay [2] it was 0.171 nM; in assay [3], 0.169 nM.
